Test results taken from patent US20190330336A1.

Key:
[1] = target: HIS-tagged (ACRO) or biotinylated recombinant human LAG3 protein (human) (UniProt P18627); test: FACS competition: antibody inhibits rhLAG3 binding to MHCII on DAUDI cells
[2] = target: human LAG3-Fc, R&D Systems #2319-L3 (human) (UniProt P18627); test: SPR (Biacore), antibody captured on anti-Flag chip, human LAG3-Fc analyte, 25 C, 1:1 fit
Sequence of human LAG3-Fc, R&D Systems #2319-L3 (human) (P18627 23-450): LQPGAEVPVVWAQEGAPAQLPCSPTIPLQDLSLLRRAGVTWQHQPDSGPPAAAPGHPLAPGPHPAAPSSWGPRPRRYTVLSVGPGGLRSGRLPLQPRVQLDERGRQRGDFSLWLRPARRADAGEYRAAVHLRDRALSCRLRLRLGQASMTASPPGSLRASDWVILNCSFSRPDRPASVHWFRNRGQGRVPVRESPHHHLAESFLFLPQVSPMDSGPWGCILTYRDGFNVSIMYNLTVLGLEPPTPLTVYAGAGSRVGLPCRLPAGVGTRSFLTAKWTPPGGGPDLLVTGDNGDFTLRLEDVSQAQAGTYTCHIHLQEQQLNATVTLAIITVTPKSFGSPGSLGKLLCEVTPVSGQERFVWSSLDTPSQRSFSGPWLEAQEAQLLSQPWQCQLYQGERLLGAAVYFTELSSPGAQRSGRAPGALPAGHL

Sequence of HIS-tagged (ACRO) or biotinylated recombinant human LAG3 protein (human) (P18627 23-450 limits assumed): as the sequence (P18627 23-450) above

B1: SRP1627-A02 (scFv, from a related filing, V domains shown, part only)
VH: QVQLVQSGAEVKKPGSSVKVSCKASGFNINDYFMHWVRQAPGQGLEWIARIDPWNGDTEYAPKFQGRVTITADESTSTAYMELSSLRSEDTAVYYCGMSDALDYWGQGTLVTVSS
VL: DVVMTQSPLSLPVTLGQPASISCKSSQSLLDSDGKTYLNWFQQRPGQSPRRLIYLVSKLDSGVPDRFSGSGSGTDFTLKISRVEAEDVGVYYCSHGNPVPQTFGQGTKVEIK
[1]
  IC50: 1.7 nM
[2]
  Kd: 43.3 nM
  koff: 0.071 s⁻¹
  kon: 1.64e+06 M⁻¹ s⁻¹
